Assay [1] addresses human CD3 expressed on cells (Jurkat cells; human T-cells of PBMC) (human) (UniProt P09693). As to the kind of experiment: cell-based or functional assay.
For assay [2] the target is unchanged. As to the kind of experiment: FACS titration on Jurkat cells (CD3+ human T-cell line).
The target of assay [3] is cynomolgus monkey CD3 expressed on monkey T-cells (PBMCs) (cynomolgus monkey) (UniProt Q95LI5). As to the kind of experiment: cell-based or functional assay.
The target is the same in assay [4]. As to the kind of experiment: FACS titration on monkey PBMCs, gated on CD2+CD4+ T cells.

Here are results for five substances from patent publication US20190127480A1.

In general, EC50 refers to the midpoint of the concentration-response curve.

human CD3 expressed on cells (Jurkat cells; human T-cells of PBMC) (human), sequence (chain, as listed by the source, chain 1 of 4): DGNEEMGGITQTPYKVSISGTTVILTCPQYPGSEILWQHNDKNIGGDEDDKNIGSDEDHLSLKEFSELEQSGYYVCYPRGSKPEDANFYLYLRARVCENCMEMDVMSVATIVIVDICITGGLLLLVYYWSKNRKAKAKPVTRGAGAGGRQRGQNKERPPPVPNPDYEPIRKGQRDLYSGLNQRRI
human CD3 expressed on cells (Jurkat cells; human T-cells of PBMC) (human), sequence (chain, as listed by the source, chain 2 of 4): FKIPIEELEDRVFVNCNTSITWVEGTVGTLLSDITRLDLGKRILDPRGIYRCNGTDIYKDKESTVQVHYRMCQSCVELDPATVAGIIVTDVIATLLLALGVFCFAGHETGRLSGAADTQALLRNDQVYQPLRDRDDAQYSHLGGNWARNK
human CD3 expressed on cells (Jurkat cells; human T-cells of PBMC) (human), sequence (P09693 23-182, chain 3 of 4): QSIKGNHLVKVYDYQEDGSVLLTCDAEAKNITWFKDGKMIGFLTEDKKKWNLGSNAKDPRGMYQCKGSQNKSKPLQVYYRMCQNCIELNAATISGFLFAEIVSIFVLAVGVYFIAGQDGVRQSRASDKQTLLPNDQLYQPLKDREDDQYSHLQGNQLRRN
human CD3 expressed on cells (Jurkat cells; human T-cells of PBMC) (human), sequence (P20963 22-164, chain 4 of 4): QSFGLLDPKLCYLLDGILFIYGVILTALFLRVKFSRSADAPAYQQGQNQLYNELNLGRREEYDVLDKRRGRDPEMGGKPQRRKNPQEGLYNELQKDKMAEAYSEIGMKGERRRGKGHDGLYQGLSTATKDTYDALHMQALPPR
cynomolgus monkey CD3 expressed on monkey T-cells (PBMCs) (cynomolgus monkey), sequence (Q95LI5 22-198, chain 1 of 2): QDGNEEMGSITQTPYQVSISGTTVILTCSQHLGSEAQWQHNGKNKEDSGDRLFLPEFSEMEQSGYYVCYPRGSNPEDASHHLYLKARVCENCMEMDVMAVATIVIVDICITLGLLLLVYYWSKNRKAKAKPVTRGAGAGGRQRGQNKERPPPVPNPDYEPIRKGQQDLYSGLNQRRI
cynomolgus monkey CD3 expressed on monkey T-cells (PBMCs) (cynomolgus monkey), sequence (Q95LI8 22-171, chain 2 of 2, further chain): as the sequence (chain, as listed by the source, chain 2 of 4) above, with I5V, N15K, I20V, S32T, D33N, I34N, T64A, S74N, V83L, H141R counted along it

As for “Isotype Ctrl (irrelevant isotype matched antibody, human Fc mAb tables)”, in assay [1], the U937 Cytotoxicity Human T-cells stood at 0 pM.

“Isotype Ctrl (irrelevant isotype matched antibody, hybridoma mAb table)”: the U937 Cytotoxicity Human T-cells in assay [1] amounted to 0 pM.

The substance “Isotype Ctrl (irrelevant isotype matched antibody, monovalent 1-arm mAb tables)” gave a U937 Cytotoxicity Human T-cells in assay [1] of 0 pM.

“OKT-3, mouse monoclonal antibody against human T-cell surface antigens (ATCC CRL-8001)” gave a half-maximal effective concentration (EC50) in assay [2] of 0.196 nM. In assay [1], this substance registered an EC50 [M] hPBMC Proliferation of 3.3e-13 M and a U937 Cytotoxicity Human T-cells of 2.35 pM.

Regarding “SP34, commercially available mouse monoclonal antibody reactive against the epsilon chain of the T3 complex on human T lymphocyte cells”, the EC50 [M] mfPBMC Proliferation in assay [3] was determined as 1.71e-12 M. The substance also returned a 50% effective concentration (EC50) in assay [4] of 0.0703 nM.
